± gives the uncertainty stated by the source.
B1: CD2-associated protein, residues 1 to 59; numbered along this chain, Q9Y5K6 (parent)
chain: MVDYIVEYDYDAVHDDELTIRVGEIIRNVKKLQEEGWLEGELNGRRGMFPDNFVKEIKR

Variants of: B1
Assay: abundance fitness (aPCA) (normalised: wild type 0, dead -1); higher = more abundant; growth selection in yeast, the domain comes from the species named
Settings: Homo sapiens

MVDYIVEYDYDAVHDDELTIRVGEIIRNTKKLQEEGWLEGELNGRRGMFPDNFVKEIKR [V29T] and MVDYIVEYDYDAVHDDELTIRVGEIIRNSKKLQEEGWLEGELNGRRGMFPDNFVKEIKR [V29S] are within error of each other in abundance fitness: -0.378 ± 0.2 for the first, -0.448 ± 0.2 for the second.

First: MVDYIVEYDYDAVHDDELTIRVGEIIRNGKKLQEEGWLEGELNGRRGMFPDNFVKEIKR [V29G]
Second: MVDYIVEYDYDAVHDDELTIRVGEIIRNMKKLQEEGWLEGELNGRRGMFPDNFVKEIKR [V29M]
The abundance fitness of the first is higher: -0.261 ± 0.11 for the first, -0.883 ± 0.43 for the second.

MVDYIVEYDYDAVHDDELTIRVGEIIRNEKKLQEEGWLEGELNGRRGMFPDNFVKEIKR [V29E] and MVDYIVEYDYDAVHDDELTIRVGEIIRNIKKLQEEGWLEGELNGRRGMFPDNFVKEIKR [V29I] are within error of each other in abundance fitness: -0.251 ± 0.24 for the first, -0.441 ± 0.23 for the second.

MVDYIVEYDYDAVHDDELTIRVGEIIRNDKKLQEEGWLEGELNGRRGMFPDNFVKEIKR [V29D] and MVDYIVEYDYDAVHDDELTIRVGEIIRNLKKLQEEGWLEGELNGRRGMFPDNFVKEIKR [V29L] are within error of each other in abundance fitness: -0.866 ± 0.35 for the first, -0.62 ± 0.22 for the second.

First: MVDYIVEYDYDAVHDDELTIRVGEIIRNCKKLQEEGWLEGELNGRRGMFPDNFVKEIKR [V29C]
Second: MVDYIVEYDYDAVHDDELTIRVGEIIRNRKKLQEEGWLEGELNGRRGMFPDNFVKEIKR [V29R]
The abundance fitness of the first is higher: -0.167 ± 0.46 for the first, -1.04 ± 0.31 for the second.

First: MVDYIVEYDYDAVHDDELTIRVGEIIRNKKKLQEEGWLEGELNGRRGMFPDNFVKEIKR [V29K]
Second: MVDYIVEYDYDAVHDDELTIRVGEIIRNAKKLQEEGWLEGELNGRRGMFPDNFVKEIKR [V29A]
The abundance fitness of the first is lower: -0.999 ± 0.28 for the first, -0.069 ± 0.1 for the second.

MVDYIVEYDYDAVHDDELTIRVGEIIRNVNKLQEEGWLEGELNGRRGMFPDNFVKEIKR [K30N] and MVDYIVEYDYDAVHDDELTIRVGEIIRNVMKLQEEGWLEGELNGRRGMFPDNFVKEIKR [K30M] are within error of each other in abundance fitness: -0.113 ± 0.16 for the first, 0.018 ± 0.11 for the second.

MVDYIVEYDYDAVHDDELTIRVGEIIRNVWKLQEEGWLEGELNGRRGMFPDNFVKEIKR [K30W] and MVDYIVEYDYDAVHDDELTIRVGEIIRNVTKLQEEGWLEGELNGRRGMFPDNFVKEIKR [K30T] are within error of each other in abundance fitness: -0.192 ± 0.091 for the first, -0.07 ± 0.11 for the second.

MVDYIVEYDYDAVHDDELTIRVGEIIRNVDKLQEEGWLEGELNGRRGMFPDNFVKEIKR [K30D] and MVDYIVEYDYDAVHDDELTIRVGEIIRNVHKLQEEGWLEGELNGRRGMFPDNFVKEIKR [K30H] are within error of each other in abundance fitness: -0.22 ± 0.18 for the first, 0.111 ± 0.19 for the second.

MVDYIVEYDYDAVHDDELTIRVGEIIRNVRKLQEEGWLEGELNGRRGMFPDNFVKEIKR [K30R] and MVDYIVEYDYDAVHDDELTIRVGEIIRNVCKLQEEGWLEGELNGRRGMFPDNFVKEIKR [K30C] are within error of each other in abundance fitness: -0.071 ± 0.068 for the first, -0.148 ± 0.12 for the second.

MVDYIVEYDYDAVHDDELTIRVGEIIRNVEKLQEEGWLEGELNGRRGMFPDNFVKEIKR [K30E] and MVDYIVEYDYDAVHDDELTIRVGEIIRNVIKLQEEGWLEGELNGRRGMFPDNFVKEIKR [K30I] are within error of each other in abundance fitness: 0.007 ± 0.18 for the first, -0.274 ± 0.12 for the second.

MVDYIVEYDYDAVHDDELTIRVGEIIRNVAKLQEEGWLEGELNGRRGMFPDNFVKEIKR [K30A] and MVDYIVEYDYDAVHDDELTIRVGEIIRNVFKLQEEGWLEGELNGRRGMFPDNFVKEIKR [K30F] are within error of each other in abundance fitness: -0.181 ± 0.13 for the first, -0.158 ± 0.14 for the second.

MVDYIVEYDYDAVHDDELTIRVGEIIRNVQKLQEEGWLEGELNGRRGMFPDNFVKEIKR [K30Q] and MVDYIVEYDYDAVHDDELTIRVGEIIRNVLKLQEEGWLEGELNGRRGMFPDNFVKEIKR [K30L] are within error of each other in abundance fitness: -0.31 ± 0.19 for the first, -0.191 ± 0.09 for the second.

MVDYIVEYDYDAVHDDELTIRVGEIIRNVVKLQEEGWLEGELNGRRGMFPDNFVKEIKR [K30V] and MVDYIVEYDYDAVHDDELTIRVGEIIRNVGKLQEEGWLEGELNGRRGMFPDNFVKEIKR [K30G] are within error of each other in abundance fitness: -0.166 ± 0.13 for the first, -0.127 ± 0.1 for the second.

MVDYIVEYDYDAVHDDELTIRVGEIIRNVSKLQEEGWLEGELNGRRGMFPDNFVKEIKR [K30S] and MVDYIVEYDYDAVHDDELTIRVGEIIRNVKTLQEEGWLEGELNGRRGMFPDNFVKEIKR [K31T] are within error of each other in abundance fitness: -0.135 ± 0.095 for the first, 0.03 ± 0.12 for the second.

Going from MVDYIVEYDYDAVHDDELTIRVGEIIRNVKQLQEEGWLEGELNGRRGMFPDNFVKEIKR [K31Q] to MVDYIVEYDYDAVHDDELTIRVGEIIRNVKWLQEEGWLEGELNGRRGMFPDNFVKEIKR [K31W], the abundance fitness falls from -0.07 ± 0.1 to -0.328 ± 0.12.

MVDYIVEYDYDAVHDDELTIRVGEIIRNVKRLQEEGWLEGELNGRRGMFPDNFVKEIKR [K31R] and MVDYIVEYDYDAVHDDELTIRVGEIIRNVKLLQEEGWLEGELNGRRGMFPDNFVKEIKR [K31L] are within error of each other in abundance fitness: -0.069 ± 0.092 for the first, -0.214 ± 0.09 for the second.

Compared with MVDYIVEYDYDAVHDDELTIRVGEIIRNVKILQEEGWLEGELNGRRGMFPDNFVKEIKR [K31I], MVDYIVEYDYDAVHDDELTIRVGEIIRNVKSLQEEGWLEGELNGRRGMFPDNFVKEIKR [K31S] is lower in abundance fitness: 0.191 ± 0.19 for the first, -0.13 ± 0.099 for the second.

MVDYIVEYDYDAVHDDELTIRVGEIIRNVKELQEEGWLEGELNGRRGMFPDNFVKEIKR [K31E] and MVDYIVEYDYDAVHDDELTIRVGEIIRNVKALQEEGWLEGELNGRRGMFPDNFVKEIKR [K31A] are within error of each other in abundance fitness: -0.061 ± 0.11 for the first, 0.053 ± 0.11 for the second.

First: MVDYIVEYDYDAVHDDELTIRVGEIIRNVKFLQEEGWLEGELNGRRGMFPDNFVKEIKR [K31F]
Second: MVDYIVEYDYDAVHDDELTIRVGEIIRNVKVLQEEGWLEGELNGRRGMFPDNFVKEIKR [K31V]
The abundance fitness of the first is lower: -0.728 ± 0.33 for the first, -0.092 ± 0.093 for the second.

MVDYIVEYDYDAVHDDELTIRVGEIIRNVKCLQEEGWLEGELNGRRGMFPDNFVKEIKR [K31C] and MVDYIVEYDYDAVHDDELTIRVGEIIRNVKGLQEEGWLEGELNGRRGMFPDNFVKEIKR [K31G] are within error of each other in abundance fitness: 0.109 ± 0.34 for the first, -0.096 ± 0.083 for the second.

MVDYIVEYDYDAVHDDELTIRVGEIIRNVKPLQEEGWLEGELNGRRGMFPDNFVKEIKR [K31P] and MVDYIVEYDYDAVHDDELTIRVGEIIRNVKHLQEEGWLEGELNGRRGMFPDNFVKEIKR [K31H] are within error of each other in abundance fitness: 0.089 ± 0.12 for the first, 0.036 ± 0.17 for the second.

Work on MVDYIVEYDYDAVHDDELTIRVGEIIRNVKNLQEEGWLEGELNGRRGMFPDNFVKEIKR [K31N] yielded an abundance fitness of -0.311 ± 0.5.
